Assays:
SJL/elite EAE mice = assay: Suppression of EAE relapse, clinical scores; assay type: in vivo; settings: BDNF 5.71 nmol/kg and/or ADTC5 10 μmol/kg i.v.
Method: EAE Mouse Model: EAE disease in animals (5-8-week-old SJL/elite female mice, Charles River) was stimulated by injecting 200 μg of PLP139-151 peptide in a 0.2 mL emulsion containing equal volumes of PBS and complete Freund's adjuvant (CFA) with killed mycobacterium tuberculosis strain H37RA (Difco, Detroit, Mich.; final concentration 4 mg/mL) as described in Kobayashi, N.; Kiptoo, P.; Kobayashi, H.; Ridwan, R.; Brocke, S.; Siahaan, T. J. Prophylactic and therapeutic suppression of experimental autoimmune encephalomyelitis by a novel bifunctional peptide inhibitor. Clin Immunol 2008, 129, (1), 69-79 and Kobayashi, N.; Kobayashi, H.; Gu, L.; Malefyt, T.; Siahaan, T. J. Antigen-specific suppression of experimental autoimmune encephalomyelitis by a novel bifunctional peptide inhibitor. J Pharmacol Exp Ther 2007, 322, (2), 879-86. Briefly, […] of PLP/CFA emulsion was administered to four different regions above the shoulders and the flanks on Day 0 followed by intraperitoneal injection of 200 ng of pertussis toxin (List Biological Laboratories, Campbell, Calif.) on Days 0 and 2. Clinical scores that reflect the disease progression were determined using an 11-point scale with 0.5 increments ranging from 0 to 5; 0 being no apparent disease and 5 being moribund. On Day 21, mice were randomly separated into […]: (i) BDNF (5.7 nmol/kg)+ADTC5 (10 μmol/kg; n=7), (ii) BDNF alone (5.71 nmol/kg, n=6), (iii) ADTC5 alone (10 μmol/kg; n=5), and (iv) vehicle (n=5). All mice received 8 intravenous injections every 4 days beginning on Day 21. The mice were euthanized via CO2 inhalation on Day 55. Area under the curve (AUC) calculations were used to compare clinical scores across groups; AUC calculations were performed using the trapezoid rule from Days 21 to 55.

[1] = tested on: EGR1, ARC, and NOS1 mRNA transcripts; assay: Fluorescent in situ hybridization of mRNA transcripts in EAE mouse cortex; assay type: in vivo, SJL/elite mice; settings: across the three groups, n=5
Method: Coronal brain sections (5 μm thickness) from mid- and hind-brain were sectioned and washed three times in PBS before mounting on gelatin-coated glass slides (Superfrost Plus, Thermo Fisher Scientific). Tissue was allowed to dry at RT and then stored at −20° C. until use. Fluorescent in situ hybridization (FISH) was performed using RNAscope® Technology 2.0, Advanced Cell Diagnostics (ACD), Hayward, Calif.) Multiplex Reagent Kit V2. See Vasquez, J. J.; Hussien, R.; Aguilar-Rodriguez, B.; Junger, H.; Dobi, D.; Henrich, T. J.; Thanh, C.; Gibson, E.; Hogan, L. E.; McCune, J.; Hunt, P. W.; Stoddart, C. A.; Laszik, Z. G. Elucidating the Burden of HIV in Tissues Using Multiplexed Immunofluorescence and In Situ Hybridization: Methods for the Single-Cell Phenotypic Characterization of Cells Harboring HIV In Situ. J Histochem Cytochem 2018, 66, (6), 427-446; Gershon, T. R.; Crowther, A. J.; Liu, H.; Miller, C. R.; Deshmukh, M. Cerebellar granule neuron progenitors are the source of Hk2 in the postnatal cerebellum. Cancer Metab 2013, 1, (1), 15; and Smith, P. A.; Schmid, C.; Zurbruegg, S.; Jivkov, M.; Doelemeyer, A.; Theil, D.; Dubost, V.; Beckmann, N. Fingolimod inhibits brain atrophy and promotes brain-derived neurotrophic factor in an animal model of multiple sclerosis. J Neuroimmunol 2018, 318, 103-113. […]

B1: BDNF: recombinant brain-derived neurotrophic factor (13 kDa monomer), Peprotech (protein, UniProt P23560 19-247, looked up)
Neurotrophic factor BDNF …: APMKEANIRGQGGLAYPGVRTHGTLESVNGPKAGSRGLTSLADTFEHVIEELLDEDQKVRPNEENNKDADLYTSRVMLSSQVPLEPPLLFLLEEYKNYLDAANMSMRVRRHSDPARRGELSVCDSISEWVTAADKKTAVDMSGGTVTVLEKVPVSKGQLKQYFYETKCNPMGYTKEGCRGIDKRHWNSQCRTTQSYVRALTMDSKKRIGWRFIRIDTSCVCTLTIKRGR
locomotion / paralysis observed (SJL/elite EAE mice; 8 injections): partial or full hind leg paralysis and full tail paralysis
EAE clinical body scores (SJL/elite EAE mice; 8 injections every 4 days from day 21, compared with other groups/vehicle): no significant difference
NOS mRNA expression [1]: no significant difference
